# Laboratory results from PMC4643347.
# How the values were obtained:
# [1] = molecular target: ST50, outer-membrane protein of the multi-drug efflux system from Salmonella enterica serovar Typhi (Salmonella enterica serovar Typhi); assay: crystal structure; ST50 crystallised by hanging-drop vapor diffusion; sodium acetate 100 mM pH 4.6, NaCl 86 mM, PEG 8000 10.4%, β-OG 0.4%, 18 °C; 2.98 Å; three protomers per asymmetric unit
# [2] = molecular target: ST50, outer-membrane protein of the multi-drug efflux system from Salmonella enterica serovar Typhi (Salmonella enterica serovar Typhi); assay: SEC; Superdex 200 10/30 GL; Tris 20 mM pH 7.5, NaCl 150 mM, β-DDM 0.2%; major fraction at about 220 kDa (trimer plus detergent micelle)
substance,measurement,setting,value
"ST50, outer-membrane protein of the multi-drug efflux system from Salmonella enterica serovar Typhi (natural protein)",stoichiometry N,[1],3
same,stoichiometry N,[2],3
